According to FireProtDB:
“And” between values parts separate entries of the source, which are not always exact repeats. Identical values can stand only once.

Settings: whole UniProt chain shown
[1] = Escherichia coli, pH 6, 19 °C, GdnHCl, CD, sodium phosphate 10 mM, sodium sulphate 10 mM, reversible: yes
[2] = Escherichia coli, pH 6, 25 °C, GdnHCl, CD, sodium phosphate 10 mM, sodium sulphate 10 mM, reversible: yes
[3] = Escherichia coli, pH 6, 25 °C, Thermal, DSC, Sodium phosphate 10 mM, Na2SO4 10 mM, reversible: yes
[4] = Escherichia coli, pH 6, Thermal, DSC, Sodium phosphate 10 mM, Na2SO4 10 mM, reversible: yes
[5] = Escherichia phage lambda, pH 5.6, 37 °C, Urea, CD, Acetic acid(deuterated) 10 mM, NaCl 100 mM, reversible: yes
[6] = Escherichia phage lambda, pH 6.6, 20 °C, GdnHCl, CD, Potassium phosphate 50 mM, KCl 100 mM, reversible: yes
[7] = Escherichia phage lambda, pH 7, 5 °C, GdnHCl, CD, Potassium phosphate 50 mM, KCl 100 mM, reversible: yes (70-100%)
[8] = Escherichia phage lambda, pH 7, 25 °C, GdnHCl, CD, Potassium phosphate 50 mM, KCl 100 mM, reversible: yes (70-100%)
[9] = Escherichia phage lambda, pH 7, Thermal, DSC, Bis-Tris 10 mM, KCl 200 mM, reversible: yes (88%)
[10] = Escherichia phage lambda, pH 7, Thermal, DSC, Bis-Tris 10 mM, KCl 200 mM, reversible: yes
[11] = Escherichia phage lambda, pH 8, Thermal, CD, KD2PO4 20 mM, NaCl 100 mM, reversible: yes (>90%)
[12] = Escherichia phage lambda, pH 8, Thermal, DSC, Potassium phosphate 10 mM, KCl 200 mM, reversible: no
[13] = Escherichia phage lambda, pH 8, Thermal, DSC, Potassium phosphate 10 mM, KCl 200 mM, reversible: yes (95%)

B1: Regulatory protein cro wild type, P03040 (protein)
chain: MEQRITLKDYAMRFGQTKTAKDLGVYQSAINKAIHAGRKIFLTINADGSVYAEEVKPFPSNKKTTA
- Tm (Escherichia phage lambda, pH 3, Thermal, CD, Potassium phosphate 10 mM, KCl 0.1 M, reversible: yes): 40 °C
- Tm (Escherichia phage lambda, pH 7, Thermal, CD, Potassium phosphate 10 mM, KCl 0.1 M, reversible: yes): 39.5 °C

B2: Regulatory protein rop wild type, P03051 (protein)
chain: MTKQEKTALNMARFIRSQTLTLLEKLNELDADEQADICESLHDHADELYRSCLARFGDDGENL
- denaturant m value [1]: 2.75 kcal/mol/M
- denaturant midpoint (higher = more stable) [1]: 3.3 M
- unfolding free energy [1]: 16 kcal/mol
- denaturant m value [2]: 3.06 kcal/mol/M
- denaturant midpoint (higher = more stable) [2]: 3.23 M
- unfolding free energy [2]: 16.9 kcal/mol
- heat capacity change of unfolding [3]: 2.46 kcal/mol/K
- unfolding free energy [3]: 17.1 kcal/mol
- Tm [4]: 71 °C
- heat capacity change of unfolding [4]: 2.46 kcal/mol/K
- unfolding enthalpy (calorimetric) [4]: 139 kcal/mol
- unfolding enthalpy (van 't Hoff) [4]: 130 kcal/mol
- Tm (Escherichia coli, pH 7, Thermal, CD, Sodium phosphate 100 mM, NaCl 200 mM): 64 °C

B3: Repressor protein cI wild type, P03034 (protein)
chain: MSTKKKPLTQEQLEDARRLKAIYEKKKNELGLSQESVADKMGMGQSGVGALFNGINALNAYNAALLAKILKVSVEEFSPSIAREIYEMYEAVSMQPSLRSEYEYPVFSHVQAGMFSPELRTFTKGDAERWVSTTKKASDSAFWLEVEGNSMTAPTGSKPSFPDGMLILVDPEQAVEPGDFCIARLGGDEFTFKKLIRDSGQVFLQPLNPQYPMIPCNESCSVVGKVIASQWPEETFG
- denaturant m value [5]: 1.23 kcal/mol/M
- unfolding free energy [5]: 3.27 kcal/mol
- denaturant m value [6]: 2.3 kcal/mol/M
- unfolding free energy [6]: 5.2 kcal/mol
- denaturant m value [7]: 2.5 kcal/mol/M
- denaturant midpoint (higher = more stable) [7]: 2.52 M
- unfolding free energy [7]: 6 kcal/mol
- denaturant m value [8]: 2.4 kcal/mol/M
- denaturant midpoint (higher = more stable) [8]: 2.03 M
- unfolding free energy [8]: 4.8 kcal/mol
- unfolding free energy (Escherichia phage lambda, pH 7, 25 °C, Urea, CD, Sodium phosphate 20 mM, NaCl 100 mM, reversible: Yes): 2.4 kcal/mol
- Tm (Escherichia phage lambda, pH 7, Thermal, CD, Potassium phosphate 10 mM, KCl 100 mM): 54 °C
- Tm (Escherichia phage lambda, pH 7, Thermal, CD, Potassium phosphate 50 mM, KCl 100 mM, reversible: yes (60-75%)): 55 °C
- Tm (Escherichia phage lambda, pH 7, Thermal, CD, Potassium phosphate 50 mM, KCl 100 mM, reversible: yes (70-100%)): 55.7 °C
- Tm (Escherichia phage lambda, pH 7, Thermal, CD, Potassium phosphate 50 mM, KCl 100 mM): 57 °C
- Tm [9]: 73.3 °C
- unfolding enthalpy (calorimetric) [9]: 82.4 kcal/mol
- unfolding enthalpy (van 't Hoff) [9]: 348 kcal/mol
- Tm [10]: 50.7 °C
- unfolding enthalpy (calorimetric) [10]: 50.9 kcal/mol
- unfolding enthalpy (van 't Hoff) [10]: 332 kcal/mol
- unfolding free energy (Escherichia phage lambda, pH 7.5, 22 °C, Urea, CD, Potassium phosphate 10 mM, KCl 50 mM): 0 kcal/mol
- Tm (Escherichia phage lambda, pH 7.5, Thermal, CD, Potassium phosphate 10 mM, KCl 50 mM): 49 °C
- unfolding free energy (Escherichia phage lambda, pH 8, 13 °C, Urea, CD, KD2PO4 20 mM, NaCl 100 mM, reversible: yes (>90%)): 4.6 kcal/mol
- unfolding free energy (Escherichia phage lambda, pH 8, 25 °C, Urea, CD, KD2PO4 20 mM, NaCl 100 mM, reversible: yes (>90%)): 4.3 kcal/mol
- unfolding free energy (Escherichia phage lambda, pH 8, 25 °C, Urea, Fluorescence, Potassium phosphate 0.1 M, reversible: yes): 2.09 kcal/mol and 1 kcal/mol
- unfolding free energy (Escherichia phage lambda, pH 8, 37 °C, Urea, CD, Potassium phosphate 4 mM, NaCl 20 mM): 0.86 kcal/mol
- Tm [11]: 57.2 °C
- unfolding enthalpy (van 't Hoff) [11]: 68 kcal/mol
- Tm [12]: 53.4 °C and 51.5 °C
- unfolding enthalpy (calorimetric) [12]: 65.5 kcal/mol and 65 kcal/mol
- unfolding enthalpy (van 't Hoff) [12]: 69.3 kcal/mol
- Tm [13]: 53.9 °C
- unfolding enthalpy (calorimetric) [13]: 53.4 kcal/mol
- unfolding enthalpy (van 't Hoff) [13]: 79.8 kcal/mol
